In the supplement of paper PMC10126150:
± gives the standard deviation of the averaged measurements.

system: ATP; test: switch fluorescence ratio, 500 uM ATP over buffer (Cy3 cluster intensity, sum of 5 cycles each) (fold (ratio)); higher = stronger signal-on switching upon ATP binding; sequences stand for … in TCGTCGGCAGCGTCAGATGTGTATAAGAGACAGTTTTTTTTTTTTTTTTTTTTTTTTT…TC; conditions: aptamer strand: ATP DNA aptamer (quencher-CACCTGGGGGAGTATTGCGGAGGAAGG + anchor), 100 nM annealed; ATP concentration: 500 uM
Method in brief: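 The fluorescence ratio divides summed target-cycle Cy3 intensity by summed buffer-cycle Cy3 intensity for each cluster and is averaged per switch-domain sequence. Cy3-labelled switching-strand clusters on a modified Illumina MiSeq flow-cell were annealed to 100 nM quencher-labelled ATP aptamer, then imaged in selection buffer and again after 15 min with 500 uM ATP at 22 °C. Five such cycles were run, with NaOH stripping and re-annealing between them, and clusters outside 100-1000 RFU were excluded.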
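Further: ATP exposure 15 min at 22 °C before imaging.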

Sequence	switch fluorescence ratio
GGTTACTTTA	1.07 ± 0.064
GGTTAGAAGG	0.96 ± 0.031
GGTTAGATAG	1.01 ± 0.035
GGTTAGGGGC	0.995 ± 0.04
GGTTAGTAGG	0.986 ± 0.021
GGTTAGTATT	0.987 ± 0.021
GGTTAGTGTC	1.05 ± 0.047
GGTTAGTGTG	0.997 ± 0.015
GGTTATAGCT	1.02 ± 0.034
GGTTATCCGG	1.01 ± 0.032
GGTTATCGAT	0.999 ± 0.0014
GGTTATGCTG	1.03 ± 0.1
GGTTATGGGG	0.985 ± 0.027
GGTTCAAGGG	0.984 ± 0.02
GGTTCAGGTA	0.9876 ± 0.0062
GGTTCAGTG	0.9936 ± 0.0079
GGTTCCTTA	0.994 ± 0.045
GGTTCGGGAA	0.9965 ± 0.0022
GGTTCGGGGG	0.997 ± 0.037
GGTTCGGTTC	1.02 ± 0.017
GGTTCGTATA	1.01 ± 0.017
GGTTCGTTGG	0.993 ± 0.013
GGTTCTAAGA	0.98129 ± 0.00096
GGTTCTACTC	1.02 ± 0.013
GGTTCTATGG	0.99441 ± 3.1e-05

Sequence	switch fluorescence ratio
GGTTCTGATC	0.981 ± 0.01
GGTTCTTATA	1.046 ± 0.008
GGTTGAACCG	1.01 ± 0.06
GGTTGAAGTG	0.974 ± 0.012
GGTTGACGGG	0.985 ± 0.055
GGTTGAGGAG	1.04 ± 0.074
GGTTGAGTGG	1 ± 0.036
GGTTGATATG	1 ± 0.041
GGTTGATTTA	1.036 ± 0.0037
GGTTGCAGAG	1.01 ± 0.024
GGTTGCAGGG	1.01 ± 0.011
GGTTGCATTA	0.9923 ± 0.0019
GGTTGCGTCT	0.9613 ± 0.003
GGTTGGAAAG	0.9919 ± 0.0013
GGTTGGCATA	0.984 ± 0.016
GGTTGGCCCC	1.02 ± 0.019
GGTTGGGTGT	1.02 ± 0.027
GGTTGGTATT	1.001 ± 0.0099
GGTTGTAGTT	0.963 ± 0.016
GGTTGTATGG	0.975 ± 0.012
GGTTGTCCTA	0.978 ± 0.023
GGTTGTCTGC	0.968 ± 0.055
GGTTGTGGCA	1.03 ± 0.011
GGTTGTTACG	0.987 ± 0.033
GGTTGTTCCG	0.9973 ± 0.0073

Sequence	switch fluorescence ratio
GGTTTAAGTC	1.06 ± 0.029
GGTTTACAGC	0.979 ± 0.012
GGTTTACGGC	1 ± 0.016
GGTTTACTG	1.03 ± 0.035
GGTTTAGAGC	1.01 ± 0.02
GGTTTAGGCA	0.999 ± 0.027
GGTTTCCATT	1 ± 0.054
GGTTTCCCTG	0.9984 ± 0.0033
GGTTTCCTTT	0.992 ± 0.021
GGTTTCGACG	1.01 ± 0.011
GGTTTCGGCG	0.966 ± 0.04
GGTTTCTAGG	0.99311 ± 0.00018
GGTTTCTCCG	1.46 ± 0.017
GGTTTCTGAA	0.998 ± 0.02
GGTTTCTTCG	1.09 ± 0.1
GGTTTCTTGA	1.02 ± 0.021
GGTTTGACGG	1.01 ± 0.053
GGTTTGATGT	0.975 ± 0.023
GGTTTGCAGC	0.975 ± 0.021
GGTTTGTCGT	0.957 ± 0.04
GGTTTGTGTG	0.991 ± 0.018
GGTTTTAAAT	0.98195 ± 0.00028
GGTTTTAGCT	0.997 ± 0.016
GGTTTTAGGG	0.996 ± 0.039
GGTTTTAGTG	0.967 ± 0.037

Sequence	switch fluorescence ratio
GGTTTTATGC	0.985 ± 0.0053
GGTTTTATGG	0.988 ± 0.027
GGTTTTATTG	0.987 ± 0.044
GGTTTTATTT	0.984 ± 0.068
GGTTTTCGTT	0.99 ± 0.021
GGTTTTCTCG	1.03 ± 0.023
GGTTTTCTGG	1.02 ± 0.027
GGTTTTGATC	0.972 ± 0.047
GGTTTTGGCC	1.02 ± 0.03
GGTTTTTAAA	1 ± 0.062
GGTTTTTCGT	0.977 ± 0.024
GGTTTTTGCT	0.9584 ± 0.0068
GGTTTTTGTC	1.01 ± 0.013
GGTTTTTTAT	1.02 ± 0.019
GTAAAAAGTG	1.05 ± 0.17
GTAAAATAGA	1.01 ± 0.034
GTAAAGGGGG	0.998 ± 0.023
GTAAATTTGA	1.03 ± 0.068
GTAAATTTGC	1.01 ± 0.013
GTAACCGGTA	1.02 ± 0.024
GTAACTGGGA	1.009 ± 0.0093
GTAAGAAGTG	0.941 ± 0.033
GTAAGCCCGC	1 ± 0.053
GTAAGGGATG	1.01 ± 0.016
GTAAGGTAAG	1.05 ± 0.015
